B1: SPOPL (parent)
chain: AKREETKAMESQRAYRFVQGKDWG

Variants of: B1
Assay: protein stability index of a GFP-peptide fusion (GPS, HEK-293T) (PSI 1-6); higher = more stable
Conditions: c terminus: a fixed tail appended
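Also: lentivirally expressed fusions sorted by FACS into six bins by GFP to DsRed ratio, PSI derived from sequencing read proportions per bin multiplied by bin number.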

Protein stability index: each site, then its substitutions
A14: P 2.83; F 3.49; K 3.98; Q 3.25; T 3.63; C 2.82; M 3.49; N 3.24; Y 2.83; G 1.9; E 3.67; I 3.8; R 3.18; V 3.42; L 3.3; D 3.1; H 3.38; S 3.3; W 2.81
R13: P 2.61; N 3.92; K 3.67; H 3.62; T 3.42; Q 3.67; G 3.61; W 2.26; E 4.24; A 3.65; Y 3.32; C 2.72; L 2.36; F 2.8; V 2.28; M 2.54; D 4.47; S 3.38; I 3.11
S11: T 2.76; P 2.72; G 2.54; H 2.83; D 4.06; Y 2.59; R 2.96; N 3.47; W 1.88; L 2.36; C 2.23; Q 3.58; A 2.07; M 2.33; K 3.15; I 2.44; V 2.53; E 3.77; F 2.14
Y15: E 4.26; A 4.14; H 3.98; R 4.3; Q 3.89; P 4.21; V 3.92; L 2.51; F 1.39; W 3.25; T 4.7; G 4; K 4.61; D 5.19; M 3.02; N 4.35; S 4.68; C 2.9; I 4.26
R16: M 3.65; S 4.04; Q 4.17; E 4.2; Y 3.24; L 3.6; W 2.94; A 3.69; C 3.77; D 4.07; V 3.51; H 4.49; T 4.04; I 3.42; F 2.63; P 3.68; N 4.2; K 3.99; G 3.63
F17: S 4.19; V 3.94; N 4.59; Q 4.37; H 3.72; K 4.45; T 4.04; P 4.03; Y 4.18; G 4.68; C 4.24; I 4.02; A 4.73; M 3.96; E 4.61; D 4.72; R 4.59; L 3.67; W 4.36
E10: P 3.18; S 3; A 2.61; C 2.63; L 2.3; Y 1.73; M 2.29; G 2.69; V 2.75; N 3.34; K 2.96; H 2.33; Q 2.95; T 3.06; F 2.37; W 2.4; I 2.15; R 2.39; D 3.02
R3: N 2.91; H 2.45; E 4.03; Y 2.93; W 3.08; P 2.67; S 3.34; V 3.24; K 3.38; L 3.31; D 3.67; Q 3.22; G 3; T 2.88; M 3.32; I 3.36; C 2.26; A 3.49; F 2.87
K7: E 3.72; W 2.04; N 3.25; Y 3.5; D 3.29; P 3.37; I 2.72; F 2.9; G 3.23; T 3.53; C 1.78; H 2.8; V 2.83; M 2.62; R 2.57; Q 3.04; L 2.44; S 3.23; A 3.52
T6: P 2.91; Y 2.46; C 3.06; G 2.56; V 2.29; F 2.32; R 2.67; S 3.58; H 3.2; A 2.48; M 2.32; I 2.34; W 2.48; Q 3.54; K 2.89; D 3.18; L 3.89; N 3.34; E 3.51
E4: H 2.5; M 2.63; P 2.96; A 2.96; D 3.26; L 2.26; V 2.42; S 3.05; T 3; C 2.35; Y 2.02; F 2.21; G 2.81; K 2.77; R 2.44; N 2.54; I 3.2; W 2.59; Q 2.65
K2: I 2.71; S 2.85; H 2.93; E 3.61; W 2.48; M 2.06; P 3.3; G 2.6; T 3.37; Q 3.13; R 2.92; C 1.75; A 3.03; F 2.81; Y 2.74; V 2.98; N 3.41; L 2.24; D 3.39
Q12: H 2.48; V 2.06; E 3.65; C 2.55; D 3.85; K 2.94; A 2.63; F 2.13; T 2.78; P 2.97; I 1.99; W 2.4; G 2.76; L 1.82; M 2.39; N 3.35; Y 2.69; S 3.4; R 2.61
A8: P 2.9; F 2.35; C 2.75; W 1.37; H 3.28; T 3.37; E 4.1; R 3.43; I 2.53; S 3.37; M 2.87; N 3.03; Y 2.77; K 3.44; G 2.48; L 2.38; V 2.42; Q 3.75; D 4.01
M9: F 2.79; Y 2.83; T 3.66; I 3.55; E 3.85; H 3.25; K 3.35; P 3.27; D 3.71; C 3.58; W 2.74; A 3.66; G 3.45; Q 3.69; L 3; R 3.11; V 3.43; S 3.87; N 3.33
A1: T 2.93; K 2.83; N 3.14; W 2.61; V 2.29; S 2.81; P 3.02; R 2.49; Y 2.57; Q 4.09; M 2.77; L 2.55
E5: W 1.75; I 2.26; Q 2.32; Y 1.71; N 2.76; A 2.67; G 2.35; S 2.32; D 4.16; L 3.15; F 2.4; M 2.28; V 3.02; R 2.38; T 2.9; C 2.37; K 2.79; P 2.76; H 2.28
V18: A 4.22; R 3.99; I 2.66; D 4.05; T 3.96; K 4.13; M 3.42; H 2.84; S 4.19; Q 3.16; F 3.32; G 3.67; W 2.43; C 3.51; N 4.14; L 3.51; E 4.15; P 4.07
